According to the supplement of paper PMC10567573:

B1: TSN (parent)
chain: AFVVYLETETLVTREAVTEILGIE
B2: KCNA3 (parent)
chain: YQSGGRIRRPVNVPIDIFSEEIRF

Variants of: B1
Assay: protein stability index of a GFP-peptide fusion (GPS, HEK-293T) (PSI 1-6); higher = more stable
Settings: c terminus: a fixed tail appended
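Also: lentivirally expressed fusions sorted by FACS into six bins by GFP to DsRed ratio, PSI derived from sequencing read proportions per bin multiplied by bin number.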

Protein stability index, by site and new letter:
V4: L 2.21; G 2.53; P 2.66; Q 1.36
T10: L 2.29; F 3.32; E 1.39; S 2.76; P 2.45; Q 1.68; Y 2.36; H 2.83; D 2.79; V 2.5; K 3.37; A 1.65; C 2.82; M 1.36; R 2.22
I23: Q 1.69; C 1.7; Y 3.36; A 1.8; E 2.03; W 1.79; N 3.34; L 2.26; H 2.75; T 1.79; K 1.55; F 2.36; D 1.42; V 3.69
L11: E 1.73; Q 3.4; W 2.15; N 2.14; M 3.03; D 2.34; A 2.69; V 2.74; R 2.65; T 1.64; P 1.97; G 2.58; H 3.08; S 2.48
T18: G 1.49; A 2.74; Q 3.84; L 2.24; N 4.21; E 3.46; F 2.48; P 2.79; H 4.07
E9: M 2.42; D 3.4; S 2.9; C 2.38; W 3.68; A 2.65; R 1.65; I 2.44; N 3.46; G 3.65; L 1.46
V12: L 2.56; A 3.16; Y 2.53; P 1.74; G 2.73; M 3.5; H 2.21; E 2.35; R 2.51; N 2.9; I 3.19; T 4.69; D 4.41; Q 1.94
T8: K 2.53; D 1.94; Q 2.06; V 2.41; H 3.17; E 1.4; C 2.57; A 2.27; G 2.1; I 2.34; R 4.36; Y 1.7; N 3.62; S 2.93
I20: R 3.48; F 3.74; D 1.6; A 2.66; K 2.91; H 2.68; Y 1.56; P 1.67; M 3.81; E 1.28; Q 5.44; W 2.75; L 4.11; N 1.98
T13: D 1.81; N 1.72; I 1.31; C 2.48; R 3.01; K 1.63; H 2.05; E 1.06; V 2.31; A 2.44; G 2.1; Y 3.33; W 1.62; F 3.68; M 3.48
E24: C 3.31; A 3.43
V17: E 1.4; T 3.01; A 2.01; D 2.61; P 3.55; Q 3.14; Y 3.6; M 4.75; H 2.62; G 2.21
Y5: C 2.94; A 2; L 2.45; H 1.59; F 1.99; R 2.97; Q 1.91; I 4.04; G 2.5; V 3.44; N 2.13; T 3.32; D 2.68; E 2.73; S 1.77; P 2.87; K 1.14

Variants of: B2
Assay: as above
Settings: c terminus: a fixed tail appended

Protein stability index: each site, then its substitutions
F24: S 2.4; H 2.4; T 2.52; P 2.26; Q 2.31; K 1.94; G 1.62; M 2.52; R 2.38; L 2.37; I 2.47; N 3.24; W 1.66; V 2.42
